Drawing on PMC3992019, “Initiation of the flexirubin biosynthesis in Chitinophaga pinensis” (Microbial Biotechnology, 2014), this text covers Km for one protein.

Substrate in data set [1]: O=C(O)/C=C/c1ccccc1
As to the kind of experiment: purified protein. Particulars: 1 mM CoA, 1 mM ATP, 1 mM MgCl2, 50 mM Tris pH 7.5, 55°C, 0.5 μM enzyme, 50-7000 μM substrate.

Substrate in data set [2]: O=C(O)/C=C/c1ccc(O)cc1
As to the kind of experiment: coupled pyrophosphate assay (EnzChek). The class given is biochemical, Chitinophaga pinensis. To be noted: 1 mM CoA, 1 mM ATP, 1 mM MgCl2, 50 mM Tris pH 7.5, 55°C, 0.5 μM enzyme, 10-750 μM substrate.

B1: FlxY (Chitinophaga pinensis DSM 2588) (protein)
chain: MYIPDIELQSTAAIRKYQETEVLRLLGYLRQFSPFYREWFAQHGIQPSTVKSLNDLWLIPPVTKEHLQQQNWDFLCVDKSRIAEYTTTSGTLGNPVIIALTQKDQERLSYNEYISFCCAGGTENDIYQLMLTLDRQFMAGMAYYNGIRKLGAGVLRVGPGVPSLQWENISRIQPTTIVAVPSFIVKLIAFAKEHNIDINASSVKSAVCIGENIRNVDFSLNVLGKKITEQWDIKLYSTYASTEMQTAFTECNAGQGGHHHPELLYIELLDDNNQPVGPNQDGEVTITTLGVEGMPLLRYKTGDICRYFQEPCSCGRHTMRLSPVIGRRKQMIKYKGTTLYPPALFDLLNDMEEVKEFVVEVFSNEIGTDEILLHLWPVAETEDIDRKIRSYLQAKLRVIPQVRYCSQADVMKMQFPEGSRKPIKFIDRR
notes: His6-tagged full-length (pCOLADuet-1, BamHI/HindIII), expressed in E. coli BL21 (DE3), HisTrap purified, tag kept; expected size 49 kDa
What is called Km is the substrate concentration at which the rate is half of its maximum. With B1, the results for the Michaelis-Menten constant (Km) in data set [1] and in data set [2] were 868 µM and 17 µM, respectively.
